The target in assay [1] is T1, recombinant human FcγRIIb protein (human, UniProt P31994 46-217).
T1 construct: Bought; injected as analyte in Biacore; also called CD32b
T1 sequence (looked up): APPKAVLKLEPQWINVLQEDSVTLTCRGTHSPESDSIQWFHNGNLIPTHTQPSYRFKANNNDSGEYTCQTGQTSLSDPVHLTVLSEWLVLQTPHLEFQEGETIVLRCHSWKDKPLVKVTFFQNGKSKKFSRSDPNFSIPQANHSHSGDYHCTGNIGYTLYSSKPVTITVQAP
Put plainly: Biacore, antibody captured on protein A. As to the method:
(§1) Variants were tested for receptor affinity using Biacore technology, also referred to as Biacore herein, a surface plasmon resonance (SPR) based technology for studying biomolecular interactions in real time. SPR measurements were performed using a Biacore 3000 instrument (Biacore, Piscataway, N.J.). A […] (Pierce Biotechnology) CM5 biosensor chip (Biacore) was generated using a standard primary amine coupling protocol. All measurements were performed using HBS-EP buffer (10 mM HEPES pH 7.4, 0.15 M NaCl, 3 mM EDTA, 0.005% vol/vol surfactant P20, Biacore). Antibodies at 20 nM or 50 nM in HBS-EP buffer were immobilized on the protein A/G surface and FcγRs were injected. After each cycle, the surface was regenerated by injecting glycine buffer (10 mM, pH 1.5). Data were processed by zeroing time and response before the injection of FcγR and by subtracting appropriate nonspecific signals (response of reference channel and injection of running buffer). Kinetic analyses were performed by global fitting of binding data with a 1:1 Langmuir binding model using BIAevaluation software (Biacore).
(§2) DNA encoding the Fc region of IgE, which contains the binding site for the anti-IgE antibodies used, was synthesized (Blue Heron Biotechnologies) and subcloned into the pTT5 vector. […] SPR measurements were performed using the protein A/antibody capture method described above, except that analyte was either FcγRIIb or the Fc region of IgE. Data acquisition and fitting are as described above.
(Surface plasmon resonance follows binding to a sensor surface in real time, without labels.)

The target of another assay is T2, Fc region of IgE (UniProt P01854-1 105-428, limits assumed).
T2 construct: domain: Fc region of IgE; also called IgE Fc
In words: Biacore, antibody captured on protein A, IgE Fc as analyte. The protocol: as §1, §2

Assay [2] deals with T1, recombinant human FcγRIIb protein. Put plainly: Biacore. As to the method:
as §1
DNA encoding the Fc region of IgE, which contains the binding site for the anti-IgE antibodies used, was synthesized (Blue Heron Biotechnologies) and subcloned into the pTT5 vector. […]

T2 sequence (P01854 other isoform, or with tags, fused parts or gaps limits assumed): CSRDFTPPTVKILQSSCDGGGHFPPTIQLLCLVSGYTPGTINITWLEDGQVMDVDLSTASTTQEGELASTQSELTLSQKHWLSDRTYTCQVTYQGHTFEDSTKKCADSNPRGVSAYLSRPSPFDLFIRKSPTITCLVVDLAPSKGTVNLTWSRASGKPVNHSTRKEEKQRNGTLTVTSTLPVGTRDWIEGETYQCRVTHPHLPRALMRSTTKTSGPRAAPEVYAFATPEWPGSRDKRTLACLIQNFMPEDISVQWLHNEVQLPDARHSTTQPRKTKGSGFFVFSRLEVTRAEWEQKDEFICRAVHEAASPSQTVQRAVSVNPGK

B1: H1L1_MaE11 (novel humanized version of MaE11, anti-IgE antibody) (antibody)
heavy: not shown
light: DIQLTQSPSSLSASVGDRVTITCRASQSVDYDGDSYMNWYQQKPGQPPKLLIYAASYLGSEIPARFSGSGSGTDFTLTISSLQPEDFATYYCQQSHEDPYTFGAGTKLEIKRTVAAPSVFIFPPSDEQLKSGTASVVCLLNNFYPREAKVQWKVDNALQSGNSQESVTEQDSKDSTYSLSSTLTLSKADYEKHKVYACEVTHQGLSSPVTKSFNRGEC
notes: copies: 2 + 2
A word on the Kd: it is the constant that tells how readily two partners part at equilibrium. Consider B1, for which the Kd in assay [1] was found to be 2000 nM; with Fc region of IgE, 0.061 nM. Also, the Fold in assay [2] was 1.

B2: MaE11_H1L1_IgG1_G236R/L328R (antibody)
heavy: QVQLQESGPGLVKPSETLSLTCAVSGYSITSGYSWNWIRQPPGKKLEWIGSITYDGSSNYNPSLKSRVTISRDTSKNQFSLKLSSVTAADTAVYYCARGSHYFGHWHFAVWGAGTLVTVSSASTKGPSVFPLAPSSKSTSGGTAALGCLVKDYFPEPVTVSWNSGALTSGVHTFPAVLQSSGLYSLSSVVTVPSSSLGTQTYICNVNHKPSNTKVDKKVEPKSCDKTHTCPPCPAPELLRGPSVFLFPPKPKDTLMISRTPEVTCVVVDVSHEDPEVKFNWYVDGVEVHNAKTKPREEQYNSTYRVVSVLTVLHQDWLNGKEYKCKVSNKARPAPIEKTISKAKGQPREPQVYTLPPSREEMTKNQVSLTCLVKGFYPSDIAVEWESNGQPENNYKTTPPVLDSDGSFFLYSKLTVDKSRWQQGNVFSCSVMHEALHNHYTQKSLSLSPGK
light: DIQLTQSPSSLSASVGDRVTITCRASQSVDYDGDSYMNWYQQKPGQPPKLLIYAASYLGSEIPARFSGSGSGTDFTLTISSLQPEDFATYYCQQSHEDPYTFGAGTKLEIKRTVAAPSVFIFPPSDEQLKSGTASVVCLLNNFYPREAKVQWKVDNALQSGNSQESVTEQDSKDSTYSLSSTLTLSKADYEKHKVYACEVTHQGLSSPVTKSFNRGEC
notes: anti-IgE; also called H1L1 MaE11 Fc-KO
Regarding B2, the binding result in assay [1] is recorded as “no binding”. Moreover, the dissociation constant (Kd) with Fc region of IgE was 0.064 nM.

B3: MaE11_H1L1_IgG1_S267E/L328F (antibody)
heavy: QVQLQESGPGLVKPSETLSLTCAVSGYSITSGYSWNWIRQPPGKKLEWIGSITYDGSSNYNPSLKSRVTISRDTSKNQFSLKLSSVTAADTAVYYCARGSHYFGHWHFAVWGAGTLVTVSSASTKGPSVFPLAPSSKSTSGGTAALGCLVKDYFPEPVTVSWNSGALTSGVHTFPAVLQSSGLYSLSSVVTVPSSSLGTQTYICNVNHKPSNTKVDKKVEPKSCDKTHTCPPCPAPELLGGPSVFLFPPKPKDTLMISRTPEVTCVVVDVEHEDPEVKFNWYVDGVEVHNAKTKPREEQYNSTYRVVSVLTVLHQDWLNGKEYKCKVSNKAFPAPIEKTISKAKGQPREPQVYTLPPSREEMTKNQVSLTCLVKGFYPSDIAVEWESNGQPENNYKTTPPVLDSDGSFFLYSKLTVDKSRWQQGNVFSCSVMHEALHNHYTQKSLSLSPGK
light: DIQLTQSPSSLSASVGDRVTITCRASQSVDYDGDSYMNWYQQKPGQPPKLLIYAASYLGSEIPARFSGSGSGTDFTLTISSLQPEDFATYYCQQSHEDPYTFGAGTKLEIKRTVAAPSVFIFPPSDEQLKSGTASVVCLLNNFYPREAKVQWKVDNALQSGNSQESVTEQDSKDSTYSLSSTLTLSKADYEKHKVYACEVTHQGLSSPVTKSFNRGEC
notes: anti-IgE
B3: the equilibrium dissociation constant (Kd) in assay [1] is 5.6 nM; with Fc region of IgE, 0.063 nM. In addition, in assay [2], the Fold came out at 366.

For the origin of these results see patent US20140212436A1 (Xencor, published 2014).
